In the RNAGym collection of RNA variant scans (doi:10.1073/pnas.2313332121):

B1: TPR t1 (parent)
chain: GACCAAUCUGCCCUCAGAGCUCGAGAACAUCUUCGGAUGCAGAGGAGGCAGGCUUCGGUGGCGCGAUAGCGCCAACGUCCUCAACCUCCAAUGCAUCCCACCACAUGAUGAUGCCUGAAGAGCCUUGGUUUUUUG

Variants of: B1
Assay: polymerase ribozyme fitness, log enrichment relative to wild type (log ratio); higher = more active; in vitro selection for triplet polymerase activity
Procedure, shortened: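 Input and output libraries were sequenced on Illumina after a single in vitro selection round, run in triplicate on PCR-built, transcribed mutant libraries of each subunit of a heterodimeric triplet polymerase ribozyme. Selection annealed libraries to a biotinylated primer, the partner subunit and triplets, incubated them frozen at −7 °C, then gel-excised extended constructs for streptavidin-bead capture and RT-PCR. Genotypes with ≥10 input reads and ≥1 read per output were kept. Fitness is the logarithm, taken in base 2, of genotype enrichment divided by wild-type enrichment, using inverse-variance-weighted replicate averages.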

Compared with C11A G107A, C11G C28U is higher in “polymerase ribozyme fitness (log ratio)” value: -5.12 for the first, -2.03 for the second.

Compared with C11G C40A C76G C86U C114U U125C, C11G C12A G51A C80A U116G is lower in “polymerase ribozyme fitness (log ratio)” value: -5.11 for the first, -5.92 for the second.

Going from C11G C12A G69C C104A to C11G G48C A66G G110A, the “polymerase ribozyme fitness (log ratio)” value falls from -2.8 to -3.11.

C11G A66C and C11G C115U are within 0.2 log units of each other in “polymerase ribozyme fitness (log ratio)” value: -0.842 for the first, -1.01 for the second.

Compared with C11G C76A G77A G93U, C11G C12U G42C G69C is lower in “polymerase ribozyme fitness (log ratio)” value: -1.15 for the first, -5.66 for the second.

First: C11G A43G U59A
Second: C11G G48U C72A
The “polymerase ribozyme fitness (log ratio)” value of the first is lower: -1.75 for the first, -0.215 for the second.

First: C11G C56U U87C
Second: C11G G42C A68U C72A A91U G113C
The “polymerase ribozyme fitness (log ratio)” value of the first is higher: 0.175 for the first, -8.47 for the second.

Compared with C11A U55G C80U C104U G113A, C11G G47U C56U U112C G122A is higher in “polymerase ribozyme fitness (log ratio)” value: -4.77 for the first, -0.322 for the second.

First: C11G G52A C99U U106G
Second: C11G A74U C76A U78A C80U G93U G135C
The “polymerase ribozyme fitness (log ratio)” value of the first is lower: -4.99 for the first, -3.08 for the second.

Compared with C11G C20A A26U C85U A90U A121C, C11G G42C A95U is higher in “polymerase ribozyme fitness (log ratio)” value: -4.44 for the first, -1.3 for the second.

Compared with C11G C70U, C11A G48U A66U C72A U96G U112C is lower in “polymerase ribozyme fitness (log ratio)” value: 0.101 for the first, -2.05 for the second.

First: C11G A18U C72A A91U G110C
Second: C11G C73A C82U
The “polymerase ribozyme fitness (log ratio)” value of the first is lower: -5.23 for the first, -0.161 for the second.

First: C11A C53G G57A C123G
Second: C11A G57A C73A C88G
The “polymerase ribozyme fitness (log ratio)” value of the first is higher: -1.45 for the first, -4.51 for the second.

C11G G42C C49U G117C C124G and C11G G61U C86A U106G C114U are within 0.2 log units of each other in “polymerase ribozyme fitness (log ratio)” value: -4.14 for the first, -4.18 for the second.

Compared with C11G C53G U96G A105C U112G, C11G C64U is higher in “polymerase ribozyme fitness (log ratio)” value: -5.28 for the first, -0.506 for the second.

Going from C11G A16U G58C A83C C89U U131A to C11G C28U C56A G60A U78G, the “polymerase ribozyme fitness (log ratio)” value falls from -3.15 to -4.9.

First: C11G C31A A41U C70G G113U
Second: C11G G42A U59A A91C C94A A95G A118G
The “polymerase ribozyme fitness (log ratio)” value of the first is lower: -5.92 for the first, -4.19 for the second.

Compared with C11G C56G U106G, C11G A43G C85A C89G C94U is lower in “polymerase ribozyme fitness (log ratio)” value: -0.581 for the first, -2.52 for the second.

First: C11A U21A C40U G47A C49A G57A G58C G61U
Second: C11G C82G G117C
The “polymerase ribozyme fitness (log ratio)” value of the first is lower: -5.81 for the first, -2.58 for the second.

Going from C11G C12A C49U C85A A91C to C11G C62U, the “polymerase ribozyme fitness (log ratio)” value rises from -2.76 to -0.108.

First: C11G C49A G52U U131A
Second: C11A C56A U81G A84U C101U C115A G120C U134G
The “polymerase ribozyme fitness (log ratio)” value of the first is lower: -1.34 for the first, 0.0951 for the second.

First: C11A G45A G60A G113C
Second: C11A C40G G42A G71A
The “polymerase ribozyme fitness (log ratio)” value of the first is higher: -4.47 for the first, -4.67 for the second.

Going from C11G A16U G93U A100C C123U to C11G C28G A105U G110U, the “polymerase ribozyme fitness (log ratio)” value falls from -3.13 to -6.33.

Going from C11G A68G U81A U106A G110A G113U A121G to C11A G77U U87G U106G G113C U125G, the “polymerase ribozyme fitness (log ratio)” value rises from -6.2 to -4.71.

C11G G23U G39C G45C G47C C89U C99G C115U and C11G C22U C34A A37U C88A U96G C115U are within 0.2 log units of each other in “polymerase ribozyme fitness (log ratio)” value: -7.14 for the first, -7.3 for the second.

First: C11G G19C G23A G63A A83C C114U C115U C123G
Second: C11G C15G G113U
The “polymerase ribozyme fitness (log ratio)” value of the first is lower: -7.99 for the first, -4.66 for the second.

First: C11G C34U A84C
Second: C11G A68U
The “polymerase ribozyme fitness (log ratio)” value of the first is higher: -3.61 for the first, -4.49 for the second.

First: C11A G48U G69U A103C
Second: C11G G71A U106G
The “polymerase ribozyme fitness (log ratio)” value of the first is lower: -3.74 for the first, -2.48 for the second.

Going from C11A C20U C34A C53A C94G A121U to C11A C73U C94U, the “polymerase ribozyme fitness (log ratio)” value rises from -3.61 to -1.82.

First: C11G G52U A118G C124G
Second: C11G C88G G93C
The “polymerase ribozyme fitness (log ratio)” value of the first is higher: 0.453 for the first, -3.14 for the second.

Going from C11A U132A to C11A G52A C73G, the “polymerase ribozyme fitness (log ratio)” value falls from -2.12 to -2.98.

First: C11G A50U A66G U87C C115U A118C
Second: C11A G44U C56U
The “polymerase ribozyme fitness (log ratio)” value of the first is lower: -6.65 for the first, -2.23 for the second.

Compared with C11G C85G, C11G G61A C64U G120U is higher in “polymerase ribozyme fitness (log ratio)” value: -1.55 for the first, -0.77 for the second.

First: C11G A50C
Second: C11G C34U C49A C123U
The “polymerase ribozyme fitness (log ratio)” value of the first is higher: -0.589 for the first, -2.86 for the second.

First: C11G C13U C56U G69A G77C C101A
Second: C11G A27C G113C G127C
The “polymerase ribozyme fitness (log ratio)” value of the first is higher: -5.25 for the first, -5.64 for the second.

Going from C11G G47U G63A C79A to C11A G51C, the “polymerase ribozyme fitness (log ratio)” value falls from -3.91 to -4.99.

First: C11A G45U A95C G113U
Second: C11A C73A U81C U125A
The “polymerase ribozyme fitness (log ratio)” value of the first is lower: -7.14 for the first, -3.38 for the second.

Compared with C11G A84U, C11G G61C U78A U126A is lower in “polymerase ribozyme fitness (log ratio)” value: -0.202 for the first, -0.897 for the second.

Going from C11G C53U G61A G107A to C11A G39C G110C, the “polymerase ribozyme fitness (log ratio)” value rises from -5.9 to -5.5.

First: C11A G60C A95C
Second: C11G A37C A46U G120C G128C
The “polymerase ribozyme fitness (log ratio)” value of the first is lower: -1.9 for the first, -0.871 for the second.

Compared with C11A G69U C79U C102U, C11G G52A U54A C98A is lower in “polymerase ribozyme fitness (log ratio)” value: -1.74 for the first, -5.44 for the second.

For C11G G17U G61A A105G, the “polymerase ribozyme fitness (log ratio)” value was -6.42.
